Results from paper PMC9820991, “Elucidating the Interaction between Pyridoxine 5′-Phosphate Oxidase and Dopa Decarboxylase: Activation of B6-Dependent Enzyme” (International Journal of Molecular Sciences, 2022).

T1: human dopa decarboxylase, holo form (human, UniProt P20711 1-480, PLP as internal aldimine on Lys303)
T1 construct: also called holoDDC; DDC; source: E. coli BL21(DE3)pLysS, purified (Histrap Ni2+ column, dialysis against PLP); not shown: His tag (from the Histrap column)
T1 sequence (looked up): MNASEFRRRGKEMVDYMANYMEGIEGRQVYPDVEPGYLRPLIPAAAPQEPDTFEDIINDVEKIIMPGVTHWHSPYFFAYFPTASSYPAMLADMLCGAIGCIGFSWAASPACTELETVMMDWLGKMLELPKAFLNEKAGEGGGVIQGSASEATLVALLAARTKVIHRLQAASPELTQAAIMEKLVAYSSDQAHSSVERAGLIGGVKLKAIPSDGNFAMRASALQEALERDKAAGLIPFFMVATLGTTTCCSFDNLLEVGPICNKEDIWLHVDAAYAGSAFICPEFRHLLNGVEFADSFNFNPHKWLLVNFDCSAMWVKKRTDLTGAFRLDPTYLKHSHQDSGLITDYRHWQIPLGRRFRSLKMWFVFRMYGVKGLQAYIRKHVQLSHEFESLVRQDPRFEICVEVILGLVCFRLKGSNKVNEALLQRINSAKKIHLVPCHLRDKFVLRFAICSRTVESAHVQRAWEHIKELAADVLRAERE

T2: human dopa decarboxylase, apo form (human, UniProt P20711 1-480)
T2 construct: same chain as m2 without PLP; Made from holoDDC by removal of the cofactor; also called apoDDC; source: E. coli BL21(DE3)pLysS, purified (Histrap Ni2+ column); PLP removed with 5 mM hydroxylamine and dialysis; not shown: His tag (from the Histrap column)
T2 sequence (looked up): T1 sequence (looked up)

T3: serine hydroxymethyltransferase (rabbit cytoplasmic), holo form (rabbit, UniProt P07511 1-484, PLP cofactor (holo form), residue not stated)
T3 construct: rabbit cytoplasmic serine hydroxymethyltransferase, recombinant, holo form; Positive control of the SPR experiment; also called holoSHMT; SHMT
T3 sequence (looked up): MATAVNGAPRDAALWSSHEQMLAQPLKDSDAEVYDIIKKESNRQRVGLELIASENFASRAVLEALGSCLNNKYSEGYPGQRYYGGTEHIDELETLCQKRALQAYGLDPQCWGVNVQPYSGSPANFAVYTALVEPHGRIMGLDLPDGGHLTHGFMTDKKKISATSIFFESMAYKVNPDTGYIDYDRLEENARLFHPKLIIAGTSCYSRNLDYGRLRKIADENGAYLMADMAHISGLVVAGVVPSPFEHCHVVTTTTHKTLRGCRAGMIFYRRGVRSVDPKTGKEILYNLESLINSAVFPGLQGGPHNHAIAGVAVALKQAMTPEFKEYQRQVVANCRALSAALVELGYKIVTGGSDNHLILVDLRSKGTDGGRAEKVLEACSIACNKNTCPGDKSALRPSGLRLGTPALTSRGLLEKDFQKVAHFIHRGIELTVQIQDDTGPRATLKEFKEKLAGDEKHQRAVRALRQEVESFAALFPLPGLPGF

B1: human pyridoxine 5′-phosphate oxidase (enzyme, UniProt Q9NVS9 1-261, looked up)
chain: MTCWLRGVTATFGRPAEWPGYLSHLCGRSAAMDLGPMRKSYRGDREAFEETHLTSLDPVKQFAAWFEEAVQCPDIGEANAMCLATCTRDGKPSARMLLLKGFGKDGFRFFTNFESRKGKELDSNPFASLVFYWEPLNRQVRVEGPVKKLPEEEAECYFHSRPKSSQIGAVVSHQSSVIPDREYLRKKNEELEQLYQDQEVPKPKSWGGYVLYPQVMEFWQGQTNRLHDRIVFRRGLPTGDSPLGPMTHRGEEDWLYERLAP
notes: human pyridoxine 5′-phosphate oxidase (PNPO), recombinant; FMN-dependent enzyme; FMN was present during lysis and the first dialysis; also called PNPO; hPNPO; source: E. coli, purified (Histrap Ni2+ column, dialysis)

Tests used:
AAT [1] = target: AAT (UniProt P17174); assay: FP/SPR; settings: cited from earlier work
Chain of AAT (P17174 2-413): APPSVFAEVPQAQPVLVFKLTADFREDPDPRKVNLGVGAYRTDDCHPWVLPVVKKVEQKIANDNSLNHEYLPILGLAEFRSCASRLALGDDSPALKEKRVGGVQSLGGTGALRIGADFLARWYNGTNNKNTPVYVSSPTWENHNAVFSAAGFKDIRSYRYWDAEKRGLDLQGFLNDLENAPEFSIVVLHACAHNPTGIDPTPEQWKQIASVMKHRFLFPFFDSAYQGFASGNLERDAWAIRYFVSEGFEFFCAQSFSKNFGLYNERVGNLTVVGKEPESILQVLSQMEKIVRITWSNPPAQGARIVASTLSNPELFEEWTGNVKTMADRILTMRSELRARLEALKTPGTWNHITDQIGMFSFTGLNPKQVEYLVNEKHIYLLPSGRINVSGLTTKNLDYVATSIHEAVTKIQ

GAD = GAD (UniProt Q99259); assay: FP/SPR; settings: cited from earlier work
Chain of GAD (Q99259 whole entry): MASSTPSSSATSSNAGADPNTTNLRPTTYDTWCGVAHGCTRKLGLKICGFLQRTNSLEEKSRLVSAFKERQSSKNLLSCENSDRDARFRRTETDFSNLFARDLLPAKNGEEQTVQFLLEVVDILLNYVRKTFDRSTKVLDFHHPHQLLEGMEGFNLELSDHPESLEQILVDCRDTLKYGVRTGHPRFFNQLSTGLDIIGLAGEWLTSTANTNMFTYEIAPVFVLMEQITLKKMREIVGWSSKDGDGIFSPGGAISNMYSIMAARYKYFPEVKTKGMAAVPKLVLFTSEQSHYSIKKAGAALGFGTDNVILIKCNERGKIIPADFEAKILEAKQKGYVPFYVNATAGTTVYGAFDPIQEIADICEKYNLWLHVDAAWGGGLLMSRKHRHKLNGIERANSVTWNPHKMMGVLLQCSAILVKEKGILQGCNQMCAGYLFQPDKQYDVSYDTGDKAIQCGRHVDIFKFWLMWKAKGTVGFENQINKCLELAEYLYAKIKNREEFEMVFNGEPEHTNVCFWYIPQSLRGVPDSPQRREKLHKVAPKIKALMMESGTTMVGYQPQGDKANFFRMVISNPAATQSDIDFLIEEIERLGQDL

AAT [2] = target: AAT (UniProt P17174); assay: fluorescence spectroscopy; settings: cited from earlier work
[3] = target: T1, human dopa decarboxylase, holo form; assay: ITC; PNPO titrated into holoDDC or apoDDC in the cell; MICROCAL PEAQ-ITC, 25 °C, 19 injections of 2 µL; 50 mM potassium phosphate pH 7.4, 150 mM NaCl; at least triplicate; settings: both partners purified
[4] = target: T2, human dopa decarboxylase, apo form; assay: as above; settings: both partners purified
[5] = target: T1, human dopa decarboxylase, holo form; assay: SPR; Biacore T200, 25 °C; apoDDC, holoDDC and holoSHMT immobilised on a CM5 chip by amine coupling; analytes PNPO and albumin 100 to 1.5625 µM in PBS-P (10 mM phosphate pH 7.4, 140 mM NaCl, 3 mM KCl, 0.05% P20), 50 µL/min; settings: both partners purified
[6] = target: T3, serine hydroxymethyltransferase (rabbit …); assay: as above; settings: both partners purified

Molecule	Kd (AAT [1]) [µM]	Kd (GAD) [nM]	Kd (AAT [2]) [nM]	Kd [3] [nM]	dH [3] [kcal/mol]	stoichiometry N [3]	Kd [4] [nM]	dH [4] [kcal/mol]	stoichiometry N [4]	Kd [5] [µM]	Kd [6] [µM]
PLK (from UniProt O00764)	4.9	2700	3000	–	–	–	–	–	–	–	–
B1	–	–	–	2590 ± 110	-2.33 ± 0.1	0.94 ± 0.04	920 ± 70	-3.03 ± 0.1	0.52 ± 0.01	3.7	15.4
